According to patent US20140087995A1 (published 2014):
Numbered stars: 1 amine (or outer) side, 2 acyl side, 3 side chain; on linkers, the order of the positions; unused ones are H or OH. Bridge positions count the residues as written; N and C are the ends. Side chains are listed from the residue outwards. Ends that are not written are not given here. * marks the point of attachment. C20 diacid = O=C(O)CCCCCCCCCCCCCCCCCCC(=O)*; γGlu = O=C(O)[C@H](CCC(=O)[*:2])N[*:1]

T1: human amylin receptor (amylin 3(a) receptor: human calcitonin receptor plus RAMP-3) (human, UniProt P30988 25-474; O60896 24-148, limits assumed)
T1 sequence (looked up) 1: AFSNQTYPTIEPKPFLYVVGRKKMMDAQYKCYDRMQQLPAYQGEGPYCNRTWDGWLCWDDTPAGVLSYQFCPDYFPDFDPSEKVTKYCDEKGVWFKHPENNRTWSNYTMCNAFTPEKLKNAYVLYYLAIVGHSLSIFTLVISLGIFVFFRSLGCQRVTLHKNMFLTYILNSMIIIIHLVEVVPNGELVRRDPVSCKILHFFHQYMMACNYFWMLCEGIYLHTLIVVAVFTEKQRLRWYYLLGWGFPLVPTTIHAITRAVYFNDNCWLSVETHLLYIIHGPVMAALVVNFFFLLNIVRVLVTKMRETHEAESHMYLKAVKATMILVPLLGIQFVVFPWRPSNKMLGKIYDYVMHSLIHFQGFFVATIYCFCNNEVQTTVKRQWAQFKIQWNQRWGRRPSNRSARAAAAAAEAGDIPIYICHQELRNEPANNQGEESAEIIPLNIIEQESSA
T1 sequence (looked up) 2: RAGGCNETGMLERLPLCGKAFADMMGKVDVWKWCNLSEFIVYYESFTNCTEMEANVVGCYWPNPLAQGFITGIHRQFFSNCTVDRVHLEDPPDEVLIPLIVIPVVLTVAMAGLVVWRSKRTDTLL

T2: human calcitonin receptor (human, UniProt P30988 25-474)
T2 sequence (looked up): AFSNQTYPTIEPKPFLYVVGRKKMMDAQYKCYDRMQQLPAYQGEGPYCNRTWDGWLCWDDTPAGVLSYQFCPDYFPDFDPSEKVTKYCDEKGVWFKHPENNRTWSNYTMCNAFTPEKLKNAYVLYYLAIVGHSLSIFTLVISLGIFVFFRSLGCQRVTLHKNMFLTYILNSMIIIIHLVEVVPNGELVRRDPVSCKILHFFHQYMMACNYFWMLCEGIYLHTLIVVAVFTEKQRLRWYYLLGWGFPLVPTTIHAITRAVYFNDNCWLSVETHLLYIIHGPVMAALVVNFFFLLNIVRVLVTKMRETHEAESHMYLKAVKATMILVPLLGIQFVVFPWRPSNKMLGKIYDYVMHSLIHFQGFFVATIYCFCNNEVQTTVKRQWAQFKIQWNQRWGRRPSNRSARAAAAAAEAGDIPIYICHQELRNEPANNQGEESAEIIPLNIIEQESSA

T3: human calcitonin receptor (human, UniProt P30988 25-474)
T3 sequence (looked up): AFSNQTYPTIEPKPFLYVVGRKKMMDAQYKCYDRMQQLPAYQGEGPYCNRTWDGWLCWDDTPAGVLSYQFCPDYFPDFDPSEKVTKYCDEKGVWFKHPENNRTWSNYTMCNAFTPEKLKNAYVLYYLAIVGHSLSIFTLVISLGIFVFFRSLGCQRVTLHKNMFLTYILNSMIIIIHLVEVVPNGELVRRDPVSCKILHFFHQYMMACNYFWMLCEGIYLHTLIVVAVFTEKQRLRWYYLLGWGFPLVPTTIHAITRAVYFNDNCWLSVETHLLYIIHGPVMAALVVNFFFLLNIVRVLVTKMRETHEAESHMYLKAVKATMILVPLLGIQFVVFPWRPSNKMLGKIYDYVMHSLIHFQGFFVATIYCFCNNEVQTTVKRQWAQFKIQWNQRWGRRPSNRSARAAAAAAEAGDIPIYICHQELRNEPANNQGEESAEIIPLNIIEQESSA

T4: human amylin receptor (amylin 3(a) receptor: human calcitonin receptor with RAMP-3) (human, UniProt P30988 25-474; O60896 24-148, limits assumed)
T4 construct: whole, on cells; Whole cells in the luciferase assay (Assay II a); also called hAmylin-R; hAmylinR
T4 sequence (looked up) 1: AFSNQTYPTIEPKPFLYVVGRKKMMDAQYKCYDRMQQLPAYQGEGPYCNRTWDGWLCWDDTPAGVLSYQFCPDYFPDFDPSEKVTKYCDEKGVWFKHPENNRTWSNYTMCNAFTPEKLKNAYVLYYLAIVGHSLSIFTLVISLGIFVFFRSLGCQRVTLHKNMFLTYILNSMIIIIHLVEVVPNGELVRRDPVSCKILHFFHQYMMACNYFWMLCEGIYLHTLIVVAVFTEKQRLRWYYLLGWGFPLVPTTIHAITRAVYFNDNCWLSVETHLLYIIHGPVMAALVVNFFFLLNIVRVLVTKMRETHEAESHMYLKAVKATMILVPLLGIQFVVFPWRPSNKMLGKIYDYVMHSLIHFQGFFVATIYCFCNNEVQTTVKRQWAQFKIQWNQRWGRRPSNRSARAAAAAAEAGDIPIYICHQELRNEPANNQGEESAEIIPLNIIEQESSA
T4 sequence (looked up) 2: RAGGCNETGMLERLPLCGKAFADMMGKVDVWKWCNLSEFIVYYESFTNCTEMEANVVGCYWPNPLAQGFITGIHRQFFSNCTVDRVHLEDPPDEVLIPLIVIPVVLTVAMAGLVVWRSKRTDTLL


What was measured:
[1] = molecular target: T1, human amylin receptor (amylin 3(a) …); assay: cell-based or functional assay
[2] = molecular target: T2, human calcitonin receptor; assay: cell-based or functional assay
[3] = molecular target: T1, human amylin receptor (amylin 3(a) …); assay: SPA competition binding, membranes of Amylin 3(a)/CRE-luc BHK cells, displacement of 125I-rat amylin (Assay V)
In short: (§1)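 SPA beads + BHK amylin 3(a)/CRE-luc membranes, 35 ng/μL final; buffer 50 mM Hepes pH 7.4, 1 mM CaCl2, 5 mM MgCl₂, 0.1% OA, 0.02% Tween20. 120 min, 25° C, shaken; scintillation count. IC₅₀ by one-site binding competition fit, taken as receptor affinity.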

[4] = molecular target: T3, human calcitonin receptor; assay: cell-based or functional assay; remark: listed apart in the source
[5] = molecular target: T4, human amylin receptor (amylin 3(a) …); assay: SPA competition binding on membranes of BHK cells with human calcitonin receptor + RAMP-3; displacement of 125I-rat amylin (Assay V)
In short: as §1

hAmylin-R funct. EC50 [1] | Ratio hCT/hAmylin funct. (hCTR EC50 against hAmylin-R EC50) [2] | hCTR funct. EC50 [2] | IC50 [3] | Ratio hCT/hAmylin funct. [4] | hCTR funct. EC50 (pM) [4] | IC50 [5] | Binder
0.101 nM | 1.8 | 0.185 nM | 0.142 nM |  |  |  | K([γGlu-C20 diacid])CNTATCATQRLAEFLRHSSPNFGAIPSSTNVGSNTP-NH2 (disulfide 2-7; N-terminus assumed; SMILES CC[C@H](C)[C@H](NC(=O)[C@H](C)NC(=O)CNC(=O)[C@H](Cc1ccccc1)NC(=O)[C@H](CC(N)=O)NC(=O)[C@@H]1CCCN1C(=O)[C@H](CO)NC(=O)[C@H](CO)NC(=O)[C@H](Cc1c[nH]cn1)NC(=O)[C@H](CCCNC(=N)N)NC(=O)[C@H](CC(C)C)NC(=O)[C@H](Cc1ccccc1)NC(=O)[C@H](CCC(=O)O)NC(=O)[C@H](C)NC(=O)[C@H](CC(C)C)NC(=O)[C@H](CCCNC(=N)N)NC(=O)[C@H](CCC(N)=O)NC(=O)[C@@H](NC(=O)[C@H](C)NC(=O)[C@@H]1CSSC[C@H](NC(=O)[C@@H](N)CCCCNC(=O)CC[C@H](NC(=O)CCCCCCCCCCCCCCCCCCC(=O)O)C(=O)O)C(=O)N[C@@H](CC(N)=O)C(=O)N[C@@H]([C@@H](C)O)C(=O)N[C@@H](C)C(=O)N[C@@H]([C@@H](C)O)C(=O)N1)[C@@H](C)O)C(=O)N1CCC[C@H]1C(=O)N[C@@H](CO)C(=O)N[C@@H](CO)C(=O)N[C@H](C(=O)N[C@@H](CC(N)=O)C(=O)N[C@H](C(=O)NCC(=O)N[C@@H](CO)C(=O)N[C@@H](CC(N)=O)C(=O)N[C@H](C(=O)N1CCC[C@H]1C(N)=O)[C@@H](C)O)C(C)C)[C@@H](C)O, also called compound 12)
 |  |  |  | 24.9 ratio | 3640 pM | 0.281 nM | K([γGlu-C20 diacid])CNTATCATQRLADFLRHSSPNFGAIPSSTNVGPRTY-NH2 (disulfide 2-7; N-terminus assumed; SMILES CC[C@H](C)[C@H](NC(=O)[C@H](C)NC(=O)CNC(=O)[C@H](Cc1ccccc1)NC(=O)[C@H](CC(N)=O)NC(=O)[C@@H]1CCCN1C(=O)[C@H](CO)NC(=O)[C@H](CO)NC(=O)[C@H](Cc1c[nH]cn1)NC(=O)[C@H](CCCNC(=N)N)NC(=O)[C@H](CC(C)C)NC(=O)[C@H](Cc1ccccc1)NC(=O)[C@H](CC(=O)O)NC(=O)[C@H](C)NC(=O)[C@H](CC(C)C)NC(=O)[C@H](CCCNC(=N)N)NC(=O)[C@H](CCC(N)=O)NC(=O)[C@@H](NC(=O)[C@H](C)NC(=O)[C@@H]1CSSC[C@H](NC(=O)[C@@H](N)CCCCNC(=O)CC[C@H](NC(=O)CCCCCCCCCCCCCCCCCCC(=O)O)C(=O)O)C(=O)N[C@@H](CC(N)=O)C(=O)N[C@@H]([C@@H](C)O)C(=O)N[C@@H](C)C(=O)N[C@@H]([C@@H](C)O)C(=O)N1)[C@@H](C)O)C(=O)N1CCC[C@H]1C(=O)N[C@@H](CO)C(=O)N[C@@H](CO)C(=O)N[C@H](C(=O)N[C@@H](CC(N)=O)C(=O)N[C@H](C(=O)NCC(=O)N1CCC[C@H]1C(=O)N[C@@H](CCCNC(=N)N)C(=O)N[C@H](C(=O)N[C@@H](Cc1ccc(O)cc1)C(N)=O)[C@@H](C)O)C(C)C)[C@@H](C)O)
